Km data for two molecules are collected here from ChEMBL document CHEMBL1136774, “Pharmacophore and quantitative structure-activity relationship modeling: complementary approaches for the rationalization and prediction of UDP-glucuronosyltransferase 1A4 substrate selectivity” (J Med Chem, 2003).

For data set [1], the target named is UGT1A4 (UDP-glucuronosyltransferase 1A4) (Homo sapiens, UniProt P22310). The experiment in a line: (§1) Binding affinity against human UDP Glucuronosyltransferase 1A4 (UGT1A4). The conditions noted are these: read-out: Km,app.
Substrate in data set [2]: C=CCc1ccc(O)c(OC)c1
The data set is described as §1.

Substrate in data set [3]: CC1(C)[C@H]2CC[C@]1(C)[C@H](O)C2
The data set is described as §1.

Substrate in data set [4]: CC1CC[C@H](C(C)C)[C@@H](O)C1
Described as §1.

Substrate in data set [5]: CCOC(=O)Nc1ccc(NCc2ccc(F)cc2)cc1N
The description is as §1.

Substrate in data set [6]: CN(C)CCC=C1c2ccccc2CCc2ccccc21
Described as §1.

Substrate in data set [7]: CN(C)CCCN1c2ccccc2CCc2ccccc21
The description is as §1.

Substrate in data set [8]: CN1CCC(=C2c3ccccc3C=Cc3ccccc32)CC1
The description is as §1.

Substrate in data set [9]: CN1CCC(=C2c3ccccc3CC(=O)c3sccc32)CC1
The data set is described as §1.

Substrate in data set [10]: CN1CCN(C2=Nc3cc(Cl)ccc3Nc3ccccc32)CC1
The data set is described as §1.

Substrate in data set [11]: CN1CCN(C2=Nc3ccccc3Oc3ccc(Cl)cc32)CC1
The description is as §1.

Substrate in data set [12]: C[C@@H]1CC[C@@]2(OC1)O[C@H]1C[C@H]3[C@@H]4CC=C5C[C@@H](O)CC[C@]5(C)[C@H]4CC[C@]3(C)[C@H]1[C@@H]2C
The data set is described as §1.

Substrate in data set [13]: C[C@@H]1CC[C@@]2(OC1)O[C@H]1C[C@H]3[C@@H]4CC[C@@]5(C)C[C@@H](O)CC[C@]5(C)[C@H]4CC(=O)[C@]3(C)[C@H]1[C@@H]2C
The data set is described as §1.

Substrate in data set [14]: C[C@@H]1CC[C@@]2(OC1)O[C@H]1C[C@H]3[C@@H]4CC[C@H]5C[C@@H](O)CC[C@]5(C)[C@H]4CC[C@]3(C)[C@H]1[C@@H]2C
The description is as §1.

Substrate in data set [15]: Cc1ccc(C(C)C)cc1O
Described as §1.

Substrate in data set [16]: Clc1ccc2c(c1)N=C(N1CCNCC1)c1ccccc1N2
The description is as §1.

Substrate in data set [17]: Nc1ccc(-c2ccc(N)cc2)cc1
Described as §1.

Substrate in data set [18]: Nc1ccc(-c2ccccc2)cc1
Described as §1.

Substrate in data set [19]: Nc1ccccc1-c1ccccc1
The description is as §1.

Substrate in data set [20]: O=[N+]([O-])c1ccc(O)cc1
The description is as §1.

Substrate in data set [21]: O=c1c(-c2ccc(O)cc2)coc2cc(O)ccc12
The description is as §1.

Substrate in data set [22]: [H][C@@]12CC[C@]3([H])[C@]([H])(CC[C@@]4(C)[C@@]3([H])CC[C@]4([H])[C@H](C)O)[C@@]1(C)CC[C@H](O)C2
The description is as §1.

Substrate in data set [23]: [H][C@@]12CC[C@]3([H])[C@]([H])(CC[C@]4(C)C(C)(O)CC[C@@]34[H])[C@@]1(C)CCC(O)C2
Described as §1.

Substrate in data set [24]: c1ccc(Nc2ccccc2)cc1
The description is as §1.

What is called Km is the concentration of substrate that gives half-maximal velocity. As to `CN(C)CCCN1c2ccccc2Sc2ccc(Cl)cc21` [CHLORPROMAZINE], the Km in data set [1] stood at 93 µM.

B1: UDP-glucuronosyltransferase 1A4 (Homo sapiens) (protein)
chain: MARGLQVPLPRLATGLLLLLSVQPWAESGKVLVVPTDGSPWLSMREALRELHARGHQAVVLTPEVNMHIKEEKFFTLTAYAVPWTQKEFDRVTLGYTQGFFETEHLLKRYSRSMAIMNNVSLALHRCCVELLHNEALIRHLNATSFDVVLTDPVNLCGAVLAKYLSIPAVFFWRYIPCDLDFKGTQCPNPSSYIPKLLTTNSDHMTFLQRVKNMLYPLALSYICHTFSAPYASLASELFQREVSVVDLVSYASVWLFRGDFVMDYPRPIMPNMVFIGGINCANGKPLSQEFEAYINASGEHGIVVFSLGSMVSEIPEKKAMAIADALGKIPQTVLWRYTGTRPSNLANNTILVKWLPQNDLLGHPMTRAFITHAGSHGVYESICNGVPMVMMPLFGDQMDNAKRMETKGAGVTLNVLEMTSEDLENALKAVINDKSYKENIMRLSSLHKDRPVEPLDLAVFWVEFVMRHKGAPHLRPAAHDLTWYQYHSLDVIGFLLAVVLTVAFITFKCCAYGYRKCLGKKGRVKKAHKSKTH
Regarding B1, the Km in data set [2] came out at 1570 µM; in data set [3] it was 1100 µM; in [4], 470 µM; in data set [5], 322 µM; in data set [6] it was 60 µM; in data set [7], 310 µM. The Km in data set [8] is 150 µM; in [9], 70 µM; in data set [10], 62 µM; in [11], 27 µM; in data set [12] it was 13 µM; in data set [13], 18 µM. Also, the Michaelis constant (Km) in data set [14] was determined as 7 µM; in [15], 1500 µM; in data set [16] it was 56 µM; in data set [17] it was 460 µM; in data set [18] it was 66 µM; in [19], 47 µM. The Km worked out at 11600 µM in data set [20]; 400 µM in data set [21]; 7.3 µM in data set [22]; 16 µM in data set [23]; 240 µM in [24].
